Drawing on article doi:10.1101/2022.06.24.497451, this text covers loss of ATPase activity compared to the WT complex when SMC3CC/RAD21N was added for two substances.

The target of the experiment is SMC3CC/RAD21N complex (human).

In the case of SMC1ACC-R57A/RAD21C complex, the loss of ATPase activity compared to the WT complex when SMC3CC/RAD21N was added is 10%. SMC1ACC-Δ58-62/RAD21C complex yielded a loss of ATPase activity compared to the WT complex when SMC3CC/RAD21N was added of 10%.
